Data set [1] deals with the molecule itself. The data set can be described thus: self-association; non-reducing SDS-PAGE, CBB staining. From the text: The recovered culture supernatant was applied to an antibody column obtained by immobilizing mouse anti-human AIM monoclonal antibody (clone 7, autologously manufactured) on HiTrap NHS-activated HP column (GE Healthcare Life Sciences) to purify human rAIM. The human rAIM bound to the antibody column was eluted with 0.1 M glycine-HCl (pH2.5), and immediately neutralized with 1 M Tris-HCl (pH 8.5) to obtain human rAIM eluate. The buffer in the eluate was substituted with Dulbecco's Phosphate-Buffered Saline (DPBS) by using Amicon Ultra filter concentrators (Millipore) to perform concentration. The protein level of the human rAIM concentrate was quantified using Bcinchoninic acid (BCA) assay (Pierce), and the final concentration was adjusted to 2.0 mg/mL with DPBS. The wild-type human rAIM protein (1 μg) purified and concentrated as mentioned above was separated under non-reducing conditions by polyacrylamide gel electrophoresis (SDS-PAGE) based on the difference in the molecular weights, Coomassie Brilliant Blue (CBB) staining was performed, and wild-type human rAIM was detected.
The wild-type mouse rAIM was prepared as follows. […] The protein level of the mouse rAIM concentrate was quantified using BCA assay, and the final concentration was adjusted to 2.0 mg/mL with DPBS. […]

Data set [2] concerns the molecule itself. The data set can be described thus: self-association; non-reducing SDS-PAGE, Oriole staining, 100 ng.
Data set [3] concerns the molecule itself. The data set can be described thus: self-association; non-reducing SDS-PAGE, Oriole staining. The source says: To verify the possibility of the cysteine at amino acid number 168 and the cysteine at amino acid number 277 of wild-type human AIM shown in SEQ ID NO: 1 being involved in the multimerization of wild-type human rAIM, the inventors prepared mutant human rAIM in which the above-mentioned cysteines are substituted with different amino acids. First, to maintain the function of wild-type human rAIM, the amino acid to be used for substitution was studied. Since cysteine is hydrophilic (hydrogen bond can be formed), electric charge 0, and non-aromatic, serine, threonine, asparagine, glutamine were selected as 4 similar amino acids. […] The mutant human rAIM was prepared as follows. […] The purified and concentrated wild-type, 2CS, 3CS, 2/3CS human rAIM proteins, each 100 ng, were separated by SDS-PAGE under non-reducing conditions based on the difference in the molecular weights, Oriole staining was performed, and each human rAIM protein was detected.

Numbering of substitutions follows the chain as printed.

From patent US20200399332A1 (published 2020) come the findings set out here.

B1: wild-type mouse recombinant AIM (other)
chain: VQLVGGAHRCEGRVEVEHNGQWGTVCDDGWDRRDVAVVCRELNCGAVIQTPRGASYQPPASEQRVLIQGVDCNGTEDTLAQCELNYDVFDCSHEEDAGAQCENPDSDLLFIPEDVRLVDGPGHCQGRVEVLHQSQWSTVCKAGWNLQVSKVVCRQLGCGRALLTYGSCNKNTQGKGPIWMGKMSCSGQEANLRSCLLSRLENNCTHGEDTWMECEDPFELKLVGGDTPCSGRLEVLHKGSWGSVCDDNWGEKEDQVVCKQLGCGKSLHPSPKTRKIYGPGAGRIWLDDVNCSGKEQSLEFCRHRLWGYHDCTHKEDVEVICTDFDV
notes: Secreted from HEK293 / HEK293T cells; also called wild-type mouse rAIM; mouse rAIM
Turning to B1, in data set [1], the binding result is recorded as “binds”.

B2: mutant mouse AIM 2CS (cysteine 168 of SEQ ID NO: 2 substituted with serine) (other)
chain: B1 chain with C168S
notes: Expressed transiently in HEK293T cells; also called 2CS mouse rAIM
For B2, the binding result in data set [2] is listed as “no binding”.

B3: mutant human AIM 2CS (cysteine 168 of SEQ ID NO: 1 substituted with serine) (other)
chain: VRLVGGLHRCEGRVEVEQKGQWGTVCDDGWDIKDVAVLCRELGCGAASGTPSGILYEPPAEKEQKVLIQSVSCTGTEDTLAQCEQEEVYDCSHDEDAGASCENPESSFSPVPEGVRLADGPGHCKGRVEVKHQNQWYTVCQTGWSLRAAKVVCRQLGCGRAVLTQKRSNKHAYGRKPIWLSQMSCSGREATLQDCPSGPWGKNTCNHDEDTWVECEDPFDLRLVGGDNLCSGRLEVLHKGVWGSVCDDNWGEKEDQVVCKQLGCGKSLSPSFRDRKCYGPGVGRIWLDNVRCSGEEQSLEQCQHRFWGFHDCTHQEDVAVICSG
notes: Expressed transiently in HEK293T cells; also called 2CS human rAIM
For the protein B3, the binding result in data set [3] is “binds”.

B4: mutant human AIM 3CS (cysteine 277 of SEQ ID NO: 1 substituted with serine) (other)
chain: B3 chain with S168C, C277S
notes: Expressed transiently in HEK293T cells; also called 3CS human rAIM
Take B4: in data set [3], the binding result is “binds”.

B5: mutant human AIM 2/3CS (cysteines 168 and 277 of SEQ ID NO: 1 substituted with serine) (other)
chain: B3 chain with C277S
notes: Expressed transiently in HEK293T cells
Turning to B5, in data set [2], the binding result was “no binding”.

B6: wild-type human recombinant AIM (apoptosis inhibitor of macrophage, CD5L) (other)
chain: B3 chain with S168C
notes: Secreted from HEK293 / HEK293T cells; also called wild-type human rAIM; human rAIM
Take B6: the binding result in data set [1] is on record as “binds”.
